These results are taken from patent US20250297013A1 (HK INNO N, published 2025).

Numbering of substitutions follows the chain as printed.

B1: Anti-HLA-G antibody 4 (antibody, IgG1, V domains shown)
VH: EVQLLESGGGLVQPGGSLRLSCAASGFTFSDYSMSWVRQAPGKGLEWVSAISPDSGSKYYADSVKGRFTISRDNSKNTLYLQMNSLRAEDTAVYYCAKGPRHLTNNIFDYWGQGTLVTVSS
VL: QSVLTQPPSASGTPGQRVTISCTGSSSNIGSNYVSWYQQLPGTAPKLLIYADSNRPSGVPDRFSGSKSGTSASLAISGLRSEDEADYYCASWDYSLSGYVFGGGTKLTVL
B2: Anti-HLA-G antibody 3 (antibody, IgG1, V domains shown)
VH: B1 VH with S55R, G56S, S57L, K58E
VL: QFVLTQPPSVSAAPGQKVTISCSGSSSNIGHSYVSWYQQLPGTAPKLLIYGNIHRPSGVPDRFSGSTSGTSASLAITGLQADDEADYYCGVWDSSLSAVVFGGGTKLTVL
B3: Anti-HLA-G antibody 1 (antibody, V domains shown)
VH: EVQLLESGGGLVQPGGSLRLSCAASGFTFSDYAMSWVRQAPGKGLEWVSVISHDGDRVYYADSVKGRFTISRDNSKNTLYLQMNSLRAEDTAVYYCAKGPRRIANAIFDYWGQGTLVTVSS
VL: QLVLTQPPSVSGAPGQKVTISCSGSSSNIGHSYVSWYQQLPGTAPKLLIYGDNNRPSGVPDRFSGSKSGTSASLAITGLQAEDEADYYCQSYDSSLSGYVFGTGTKVTVL
B4: Anti-HLA-G antibody 2 (antibody, IgG1, V domains shown)
VH: B3 VH with D56G, R57S, V58I
VL: B3 VL with L2F, G12A, S26N, H31N, L40V, T43A, K46R, D52S, N53T

For one test, the target named is T1, HLA-G dimer (signal peptide-b2m-HLA-G-6xHis antigen of Example 1, dimer fraction) (human).
T1 construct: also called HLA-G multimers
In words: CD8a block ELISA: dimeric antigen coated, antibody 0.391 nM, competitor CD8a-His 100 nM, anti-CD8a-HRP detection.
For the molecule B1, the “CD8a Block EIA (%)” value came to 32.1%.

Take B2: the “CD8a Block EIA (%)” value amounted to 37.7%.

As to B3, the “CD8a Block EIA (%)” value came to 39.5%.

With B4, the “CD8a Block EIA (%)” value is 39%.

A further test addresses T1, HLA-G dimer (signal …). In words: SPR, HLA-G dimer.
In turn, B1 had a Kd of 4.88 nM.

Molecule B2 displayed a Kd of 3.98 nM.

The molecule B3 returned a Kd of 1.11 nM.

B4: the Kd came to 0.841 nM.

The target of another test is T2, HLA-G monomer (signal peptide-b2m-HLA-G-6xHis antigen of Example 1, monomer fraction) (human).
T2 construct: also called b2m-HLA-G antigen
In words: SPR, HLA-G monomer.
On to B2, for which the dissociation constant Kd was 28.1 nM.

B3 yielded a dissociation constant (Kd) of 15 nM.

Molecule B4 yielded a dissociation constant (Kd) of 9.3 nM.

The target of another test is T3, HLA-G antigen produced in Example 1 (signal peptide-b2m-HLA-G-6xHis; monomer or dimer not stated) (human).
T3 construct: also called b2m-HLA-G antigen
In words: Octet (BLI); form of the antigen not stated.
As for B1, binding was put at a Kd of 1.45 nM.

In turn, B2 gave a Kd of 1.06 nM.

For B3, binding was put at a Kd of 0.284 nM.

As for B4, the affinity, expressed as Kd, was 0.549 nM.

The target of the next test is T3, HLA-G antigen produced in Example 1 …. In words: ILT2 block ELISA: competitor ILT-2-Fc coated, antigen of Example 1 pre-mixed with antibody dilutions, anti-His-HRP detection.
B1: the IC50 was 144 nM.

Turning to B2, the concentration for half-maximal inhibition (IC50) stood at 164 nM.

The molecule B3 showed a 50% inhibitory concentration (IC50) of 155 nM.

For the molecule B4, the IC50 was found to be 146 nM.
